Experimental data published in PMC10323135.

Target: Norovirus-like particle displaying C-terminal SpyTag (norovirus VP1 capsid protein fused with a C-terminal SpyTag) (norovirus strain Hu/GII.4/Sydney/NSW0514/2012/AU)
Assay: SDS-PAGE mobility shift of the covalent SpyTag/SpyCatcher conjugate

Substance: SpyCatcher-M2e (SpyCatcher fused with the ectodomain of influenza matrix-2 protein) (designed binder)
- conjugation efficiency: 24%
